Assay results from PMC12146755.

What was measured:
[1] = target: CD3ε (antigen of the surface plasmon resonance) (human) (UniProt P07766); test: SPR; format and conditions not given in the main text (SI Appendix, Fig. S1 D-F)
Target sequence in this assay (P07766 23-207): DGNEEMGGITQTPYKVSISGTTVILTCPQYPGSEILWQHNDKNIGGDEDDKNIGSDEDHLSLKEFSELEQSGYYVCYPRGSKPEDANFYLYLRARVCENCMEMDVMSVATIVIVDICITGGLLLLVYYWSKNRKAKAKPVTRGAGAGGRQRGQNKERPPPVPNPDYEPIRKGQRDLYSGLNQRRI

[2] = target: CD3ε (antigen of the surface plasmon resonance) (human) (UniProt P07766); test: SPR; details: bispecific antibody
Target sequence in this assay (P07766 23-126): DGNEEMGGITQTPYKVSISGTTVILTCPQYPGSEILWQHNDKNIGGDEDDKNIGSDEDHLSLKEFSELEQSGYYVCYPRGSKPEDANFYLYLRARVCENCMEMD

[3] = target: Her2 (antigen of the surface plasmon resonance) (human) (UniProt P04626); test: SPR; details: bispecific antibody

Row | Substance | Kd [1] [nM] | Kd [2] [nM] | Kd [3] [nM]
1 | Bispecific T cell engager Format A (anti-Her2 x anti-CD3ε, IgG1-based) (bispecific antibody) | < 10 |  | 
2 | Bispecific T cell engager Format A (anti-Her2 x anti-CD3ε, IgG1-based) (from UniProt P01857) |  | 3.8 | 0.156
3 | Bispecific T cell engager Format B (anti-Her2 x anti-CD3ε, IgG1-based) (bispecific antibody) | < 10 |  | 
4 | Bispecific T cell engager Format B (anti-Her2 x anti-CD3ε, IgG1-based) (from UniProt P01857) |  | 4.2 | 0.249
5 | Bispecific T cell engager Format C (anti-Her2 x anti-CD3ε, IgG1-based) (bispecific antibody) | < 10 |  | 
6 | Bispecific T cell engager Format C (anti-Her2 x anti-CD3ε, IgG1-based) (from UniProt P01857) |  | 5.4 | 0.086
